In PMC12186490 (2025):

Experiments:
[1] = molecular target: T1, fluorescein-labeled synthetic NRPS-inducing peptide (NIP) (Streptococcus salivarius K12, fluorescein label); experiment: FP; pH 5.5
[2] = molecular target: T1, fluorescein-labeled synthetic …; experiment: FP; pH 7.5
[3] = molecular target: T1, fluorescein-labeled synthetic …; experiment: FP; pH 5.0
[4] = molecular target: T1, fluorescein-labeled synthetic …; experiment: FP; pH 5.5; remark: listed apart in the source
[5] = molecular target: T1, fluorescein-labeled synthetic …; experiment: FP; pH 6.0
[6] = molecular target: T1, fluorescein-labeled synthetic …; experiment: FP; pH 6.5
[7] = molecular target: T1, fluorescein-labeled synthetic …; experiment: FP; pH 7.0
[8] = molecular target: T1, fluorescein-labeled synthetic …; experiment: FP; pH 7.5; remark: listed apart in the source

B1: NRPS regulator NrpR (amino acids 1-285), recombinant, untagged (receptor)
chain: GSHMNFGQAIDHLRRQKHFSVKQICGNYLSRQTYYRFVNNEVDISSTKLFYLLNHLNVNVDEFLFICNNFQLEKEFTDMEKIKIYFEKNNIVGLQNLLTSYSSQINVKEKIIYALISSLLGRLTNTSSCTEEKILRDYLINIETWTHYETVLFNNAMFIFDSEFIELIFRKINLNLEKYSTLRYYGNESIRMFINMIILYIDRQDIRRAKEALQIAKNFKINDDCMYEKSCIVFFNEVLNLLNGEISSLKICKSIIKYFNLIGSLSIAAMFESYLDTLIKNNPHITFN
Kd [1]: 0.0061 µM
Kd [2]: 0.0204 µM
Kd [3]: 0.018 µM
Kd [4]: 0.0075 µM
Kd [5]: 0.0122 µM
Kd [6]: 0.0162 µM
Kd [7]: 0.0184 µM
Kd [8]: 0.026 µM
